According to US20230324389:

MMP9, sequence (chain, as listed by the source): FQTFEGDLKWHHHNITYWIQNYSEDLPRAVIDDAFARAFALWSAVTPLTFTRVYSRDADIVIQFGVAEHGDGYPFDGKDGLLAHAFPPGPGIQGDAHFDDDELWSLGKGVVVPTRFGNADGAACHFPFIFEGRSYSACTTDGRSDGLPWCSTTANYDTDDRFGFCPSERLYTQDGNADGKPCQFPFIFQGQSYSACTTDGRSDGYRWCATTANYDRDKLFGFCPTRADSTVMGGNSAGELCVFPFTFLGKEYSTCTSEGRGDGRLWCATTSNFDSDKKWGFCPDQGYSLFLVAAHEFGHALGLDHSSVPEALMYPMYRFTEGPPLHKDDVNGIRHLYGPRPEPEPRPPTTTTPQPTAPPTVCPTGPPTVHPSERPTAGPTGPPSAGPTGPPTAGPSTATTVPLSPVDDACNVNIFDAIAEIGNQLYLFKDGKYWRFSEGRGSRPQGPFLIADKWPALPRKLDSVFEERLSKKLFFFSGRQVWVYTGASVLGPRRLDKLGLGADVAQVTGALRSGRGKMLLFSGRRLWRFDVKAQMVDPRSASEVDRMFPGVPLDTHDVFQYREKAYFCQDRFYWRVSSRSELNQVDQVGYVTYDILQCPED

MMP9
unmasking (protease cleavage) rate (818-C1 MB): MMP9: 818-P1>818-C1 MB>818-C1MA
unmasking (protease cleavage) rate (818-P1): MMP9: 818-P1>818-C1 MB>818-C1MA
unmasking (protease cleavage) rate (818-C1MA): MMP9: 818-P1>818-C1 MB>818-C1MA

Urokinase-type Plasminogen Activator (uPA)
unmasking (protease cleavage) activity (818-C1 MB): Unmasking activity attributable to uPA required higher concentrations of proteases and longer digestion times
unmasking (protease cleavage) activity (818-P1): Unmasking activity attributable to uPA required higher concentrations of proteases and longer digestion times
unmasking (protease cleavage) activity (818-C1MA): Unmasking activity attributable to uPA required higher concentrations of proteases and longer digestion times
